Data published in the supplement of paper PMC11908140.

B1: library; numbered along this chain (parent)
chain: MRKPRAAVGSGHRKQAASQEGRQKHAKNNSQAKPSACDGLARQPEEVVLQASVSSYHLFRDVAEVTAFRGSLLSWYDQEKRDLPWRRRAEDEMDLDRRAYAVWVSEVMLQQTQVATVINYYTGWMQKWPTLQDLASASLEEVNQLWAGLGYYSRGRRLQEGARKVVEELGGHMPRTAETLQQLLPGVGRYTAGAIASIAFGQATGVVDGNVARVLCRVRAIGADPSSTLVSQQLWGLAQQLVDPARPGDFNQAAMELGATVCTPQRPLCSQCPVESLCRARQRVEQEQLLASGSLSGSPDVEECAPNTGQCHLCLPPSEPWDQTLGVVNFPRKASRKPPREESSATCVLEQPGALGAQILLVQRPNSGLLAGLWEFPSVTWEPSEQLQRKALLQELQRWAGPLPATHLRHLGEVVHTFSHIKLTYQVYGLALEGQTPVTTVPPGARWLTQEEFHTAAVSTAMKKVFRVYQGQQPGTCMGSKRSQVSSPCSRKKPRMGQQVLDNFFRSHISTDAHSLNSAAQ

Variants of: B1
Assay: 8OG:A repair function score (normalized; synonymous = 0, nonsense = -1) (normalized log-likelihood score); higher = more repair activity (WT-like)
Details: with 8OG:A DNA repair reporter (GFP) in HEK-293 MUTYH KO cells
Experimental: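 Saturation mutagenesis (NNN codon scan) of the MUTYH cDNA (521-aa nuclear isoform NM_001048174.1 / NP_001041639), stably expressed under doxycycline induction in HEK-293 MUTYH knockout cells. Cells were co-transfected with an 8OG:A-bearing GFP repair reporter plus mCherry and sorted 72 h later into GFP+ and GFP− bins, three replicates per tile. The Rosace log2 enrichment (GFP+ vs GFP−) was converted per tile to a normalized function score with synonymous variants centered at 0 and nonsense variants (codons 1-471) at -1; low-abundance variants were removed.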

Going from MRKPRAAVGSGHRKQAASQEGRQKHAKNNSQAKPSACDGLARQPEEVVLQAQVSSYHLFRDVAEVTAFRGSLLSWYDQEKRDLPWRRRAEDEMDLDRRAYAVWVSEVMLQQTQVATVINYYTGWMQKWPTLQDLASASLEEVNQLWAGLGYYSRGRRLQEGARKVVEELGGHMPRTAETLQQLLPGVGRYTAGAIASIAFGQATGVVDGNVARVLCRVRAIGADPSSTLVSQQLWGLAQQLVDPARPGDFNQAAMELGATVCTPQRPLCSQCPVESLCRARQRVEQEQLLASGSLSGSPDVEECAPNTGQCHLCLPPSEPWDQTLGVVNFPRKASRKPPREESSATCVLEQPGALGAQILLVQRPNSGLLAGLWEFPSVTWEPSEQLQRKALLQELQRWAGPLPATHLRHLGEVVHTFSHIKLTYQVYGLALEGQTPVTTVPPGARWLTQEEFHTAAVSTAMKKVFRVYQGQQPGTCMGSKRSQVSSPCSRKKPRMGQQVLDNFFRSHISTDAHSLNSAAQ [S52Q] to MRKPRAAVGSGHRKQAASQEGRQKHAKNNSQAKPSACDGLARQPEEVVLQARVSSYHLFRDVAEVTAFRGSLLSWYDQEKRDLPWRRRAEDEMDLDRRAYAVWVSEVMLQQTQVATVINYYTGWMQKWPTLQDLASASLEEVNQLWAGLGYYSRGRRLQEGARKVVEELGGHMPRTAETLQQLLPGVGRYTAGAIASIAFGQATGVVDGNVARVLCRVRAIGADPSSTLVSQQLWGLAQQLVDPARPGDFNQAAMELGATVCTPQRPLCSQCPVESLCRARQRVEQEQLLASGSLSGSPDVEECAPNTGQCHLCLPPSEPWDQTLGVVNFPRKASRKPPREESSATCVLEQPGALGAQILLVQRPNSGLLAGLWEFPSVTWEPSEQLQRKALLQELQRWAGPLPATHLRHLGEVVHTFSHIKLTYQVYGLALEGQTPVTTVPPGARWLTQEEFHTAAVSTAMKKVFRVYQGQQPGTCMGSKRSQVSSPCSRKKPRMGQQVLDNFFRSHISTDAHSLNSAAQ [S52R], the “8OG:A repair function score” value rises from -0.0208 to 0.00314.

Compared with MRKPRAAVGSGHRKQAASQEGRQKHAKNNSQAKPSACDGLARQPEEVVLQATVSSYHLFRDVAEVTAFRGSLLSWYDQEKRDLPWRRRAEDEMDLDRRAYAVWVSEVMLQQTQVATVINYYTGWMQKWPTLQDLASASLEEVNQLWAGLGYYSRGRRLQEGARKVVEELGGHMPRTAETLQQLLPGVGRYTAGAIASIAFGQATGVVDGNVARVLCRVRAIGADPSSTLVSQQLWGLAQQLVDPARPGDFNQAAMELGATVCTPQRPLCSQCPVESLCRARQRVEQEQLLASGSLSGSPDVEECAPNTGQCHLCLPPSEPWDQTLGVVNFPRKASRKPPREESSATCVLEQPGALGAQILLVQRPNSGLLAGLWEFPSVTWEPSEQLQRKALLQELQRWAGPLPATHLRHLGEVVHTFSHIKLTYQVYGLALEGQTPVTTVPPGARWLTQEEFHTAAVSTAMKKVFRVYQGQQPGTCMGSKRSQVSSPCSRKKPRMGQQVLDNFFRSHISTDAHSLNSAAQ [S52T], MRKPRAAVGSGHRKQAASQEGRQKHAKNNSQAKPSACDGLARQPEEVVLQAWVSSYHLFRDVAEVTAFRGSLLSWYDQEKRDLPWRRRAEDEMDLDRRAYAVWVSEVMLQQTQVATVINYYTGWMQKWPTLQDLASASLEEVNQLWAGLGYYSRGRRLQEGARKVVEELGGHMPRTAETLQQLLPGVGRYTAGAIASIAFGQATGVVDGNVARVLCRVRAIGADPSSTLVSQQLWGLAQQLVDPARPGDFNQAAMELGATVCTPQRPLCSQCPVESLCRARQRVEQEQLLASGSLSGSPDVEECAPNTGQCHLCLPPSEPWDQTLGVVNFPRKASRKPPREESSATCVLEQPGALGAQILLVQRPNSGLLAGLWEFPSVTWEPSEQLQRKALLQELQRWAGPLPATHLRHLGEVVHTFSHIKLTYQVYGLALEGQTPVTTVPPGARWLTQEEFHTAAVSTAMKKVFRVYQGQQPGTCMGSKRSQVSSPCSRKKPRMGQQVLDNFFRSHISTDAHSLNSAAQ [S52W] is lower in “8OG:A repair function score” value: 0.00677 for the first, -0.00265 for the second.

Compared with MRKPRAAVGSGHRKQAASQEGRQKHAKNNSQAKPSACDGLARQPEEVVLQAYVSSYHLFRDVAEVTAFRGSLLSWYDQEKRDLPWRRRAEDEMDLDRRAYAVWVSEVMLQQTQVATVINYYTGWMQKWPTLQDLASASLEEVNQLWAGLGYYSRGRRLQEGARKVVEELGGHMPRTAETLQQLLPGVGRYTAGAIASIAFGQATGVVDGNVARVLCRVRAIGADPSSTLVSQQLWGLAQQLVDPARPGDFNQAAMELGATVCTPQRPLCSQCPVESLCRARQRVEQEQLLASGSLSGSPDVEECAPNTGQCHLCLPPSEPWDQTLGVVNFPRKASRKPPREESSATCVLEQPGALGAQILLVQRPNSGLLAGLWEFPSVTWEPSEQLQRKALLQELQRWAGPLPATHLRHLGEVVHTFSHIKLTYQVYGLALEGQTPVTTVPPGARWLTQEEFHTAAVSTAMKKVFRVYQGQQPGTCMGSKRSQVSSPCSRKKPRMGQQVLDNFFRSHISTDAHSLNSAAQ [S52Y], MRKPRAAVGSGHRKQAASQEGRQKHAKNNSQAKPSACDGLARQPEEVVLQAVVSSYHLFRDVAEVTAFRGSLLSWYDQEKRDLPWRRRAEDEMDLDRRAYAVWVSEVMLQQTQVATVINYYTGWMQKWPTLQDLASASLEEVNQLWAGLGYYSRGRRLQEGARKVVEELGGHMPRTAETLQQLLPGVGRYTAGAIASIAFGQATGVVDGNVARVLCRVRAIGADPSSTLVSQQLWGLAQQLVDPARPGDFNQAAMELGATVCTPQRPLCSQCPVESLCRARQRVEQEQLLASGSLSGSPDVEECAPNTGQCHLCLPPSEPWDQTLGVVNFPRKASRKPPREESSATCVLEQPGALGAQILLVQRPNSGLLAGLWEFPSVTWEPSEQLQRKALLQELQRWAGPLPATHLRHLGEVVHTFSHIKLTYQVYGLALEGQTPVTTVPPGARWLTQEEFHTAAVSTAMKKVFRVYQGQQPGTCMGSKRSQVSSPCSRKKPRMGQQVLDNFFRSHISTDAHSLNSAAQ [S52V] is lower in “8OG:A repair function score” value: 0.0053 for the first, -0.00119 for the second.

Compared with MRKPRAAVGSGHRKQAASQEGRQKHAKNNSQAKPSACDGLARQPEEVVLQASFSSYHLFRDVAEVTAFRGSLLSWYDQEKRDLPWRRRAEDEMDLDRRAYAVWVSEVMLQQTQVATVINYYTGWMQKWPTLQDLASASLEEVNQLWAGLGYYSRGRRLQEGARKVVEELGGHMPRTAETLQQLLPGVGRYTAGAIASIAFGQATGVVDGNVARVLCRVRAIGADPSSTLVSQQLWGLAQQLVDPARPGDFNQAAMELGATVCTPQRPLCSQCPVESLCRARQRVEQEQLLASGSLSGSPDVEECAPNTGQCHLCLPPSEPWDQTLGVVNFPRKASRKPPREESSATCVLEQPGALGAQILLVQRPNSGLLAGLWEFPSVTWEPSEQLQRKALLQELQRWAGPLPATHLRHLGEVVHTFSHIKLTYQVYGLALEGQTPVTTVPPGARWLTQEEFHTAAVSTAMKKVFRVYQGQQPGTCMGSKRSQVSSPCSRKKPRMGQQVLDNFFRSHISTDAHSLNSAAQ [V53F], MRKPRAAVGSGHRKQAASQEGRQKHAKNNSQAKPSACDGLARQPEEVVLQASASSYHLFRDVAEVTAFRGSLLSWYDQEKRDLPWRRRAEDEMDLDRRAYAVWVSEVMLQQTQVATVINYYTGWMQKWPTLQDLASASLEEVNQLWAGLGYYSRGRRLQEGARKVVEELGGHMPRTAETLQQLLPGVGRYTAGAIASIAFGQATGVVDGNVARVLCRVRAIGADPSSTLVSQQLWGLAQQLVDPARPGDFNQAAMELGATVCTPQRPLCSQCPVESLCRARQRVEQEQLLASGSLSGSPDVEECAPNTGQCHLCLPPSEPWDQTLGVVNFPRKASRKPPREESSATCVLEQPGALGAQILLVQRPNSGLLAGLWEFPSVTWEPSEQLQRKALLQELQRWAGPLPATHLRHLGEVVHTFSHIKLTYQVYGLALEGQTPVTTVPPGARWLTQEEFHTAAVSTAMKKVFRVYQGQQPGTCMGSKRSQVSSPCSRKKPRMGQQVLDNFFRSHISTDAHSLNSAAQ [V53A] is higher in “8OG:A repair function score” value: -0.00754 for the first, 0.00104 for the second.

Compared with MRKPRAAVGSGHRKQAASQEGRQKHAKNNSQAKPSACDGLARQPEEVVLQASESSYHLFRDVAEVTAFRGSLLSWYDQEKRDLPWRRRAEDEMDLDRRAYAVWVSEVMLQQTQVATVINYYTGWMQKWPTLQDLASASLEEVNQLWAGLGYYSRGRRLQEGARKVVEELGGHMPRTAETLQQLLPGVGRYTAGAIASIAFGQATGVVDGNVARVLCRVRAIGADPSSTLVSQQLWGLAQQLVDPARPGDFNQAAMELGATVCTPQRPLCSQCPVESLCRARQRVEQEQLLASGSLSGSPDVEECAPNTGQCHLCLPPSEPWDQTLGVVNFPRKASRKPPREESSATCVLEQPGALGAQILLVQRPNSGLLAGLWEFPSVTWEPSEQLQRKALLQELQRWAGPLPATHLRHLGEVVHTFSHIKLTYQVYGLALEGQTPVTTVPPGARWLTQEEFHTAAVSTAMKKVFRVYQGQQPGTCMGSKRSQVSSPCSRKKPRMGQQVLDNFFRSHISTDAHSLNSAAQ [V53E], MRKPRAAVGSGHRKQAASQEGRQKHAKNNSQAKPSACDGLARQPEEVVLQASGSSYHLFRDVAEVTAFRGSLLSWYDQEKRDLPWRRRAEDEMDLDRRAYAVWVSEVMLQQTQVATVINYYTGWMQKWPTLQDLASASLEEVNQLWAGLGYYSRGRRLQEGARKVVEELGGHMPRTAETLQQLLPGVGRYTAGAIASIAFGQATGVVDGNVARVLCRVRAIGADPSSTLVSQQLWGLAQQLVDPARPGDFNQAAMELGATVCTPQRPLCSQCPVESLCRARQRVEQEQLLASGSLSGSPDVEECAPNTGQCHLCLPPSEPWDQTLGVVNFPRKASRKPPREESSATCVLEQPGALGAQILLVQRPNSGLLAGLWEFPSVTWEPSEQLQRKALLQELQRWAGPLPATHLRHLGEVVHTFSHIKLTYQVYGLALEGQTPVTTVPPGARWLTQEEFHTAAVSTAMKKVFRVYQGQQPGTCMGSKRSQVSSPCSRKKPRMGQQVLDNFFRSHISTDAHSLNSAAQ [V53G] is lower in “8OG:A repair function score” value: 0.00193 for the first, -0.0541 for the second.

Compared with MRKPRAAVGSGHRKQAASQEGRQKHAKNNSQAKPSACDGLARQPEEVVLQASDSSYHLFRDVAEVTAFRGSLLSWYDQEKRDLPWRRRAEDEMDLDRRAYAVWVSEVMLQQTQVATVINYYTGWMQKWPTLQDLASASLEEVNQLWAGLGYYSRGRRLQEGARKVVEELGGHMPRTAETLQQLLPGVGRYTAGAIASIAFGQATGVVDGNVARVLCRVRAIGADPSSTLVSQQLWGLAQQLVDPARPGDFNQAAMELGATVCTPQRPLCSQCPVESLCRARQRVEQEQLLASGSLSGSPDVEECAPNTGQCHLCLPPSEPWDQTLGVVNFPRKASRKPPREESSATCVLEQPGALGAQILLVQRPNSGLLAGLWEFPSVTWEPSEQLQRKALLQELQRWAGPLPATHLRHLGEVVHTFSHIKLTYQVYGLALEGQTPVTTVPPGARWLTQEEFHTAAVSTAMKKVFRVYQGQQPGTCMGSKRSQVSSPCSRKKPRMGQQVLDNFFRSHISTDAHSLNSAAQ [V53D], MRKPRAAVGSGHRKQAASQEGRQKHAKNNSQAKPSACDGLARQPEEVVLQASCSSYHLFRDVAEVTAFRGSLLSWYDQEKRDLPWRRRAEDEMDLDRRAYAVWVSEVMLQQTQVATVINYYTGWMQKWPTLQDLASASLEEVNQLWAGLGYYSRGRRLQEGARKVVEELGGHMPRTAETLQQLLPGVGRYTAGAIASIAFGQATGVVDGNVARVLCRVRAIGADPSSTLVSQQLWGLAQQLVDPARPGDFNQAAMELGATVCTPQRPLCSQCPVESLCRARQRVEQEQLLASGSLSGSPDVEECAPNTGQCHLCLPPSEPWDQTLGVVNFPRKASRKPPREESSATCVLEQPGALGAQILLVQRPNSGLLAGLWEFPSVTWEPSEQLQRKALLQELQRWAGPLPATHLRHLGEVVHTFSHIKLTYQVYGLALEGQTPVTTVPPGARWLTQEEFHTAAVSTAMKKVFRVYQGQQPGTCMGSKRSQVSSPCSRKKPRMGQQVLDNFFRSHISTDAHSLNSAAQ [V53C] is lower in “8OG:A repair function score” value: 0.00694 for the first, 0.000965 for the second.
